Like-named read-outs stand apart in the source and are kept apart here.
Experiments:
mice = experiment: Example 40: multi-site IM/SC G-CSF mRNA in mice, neutrophil count (Table 65); type: in vivo; conditions: day 3
Description: Injection of four doses or 2×50 ug (two sites) daily for three days (24 hrs interval) was performed. The fourth dose was administered 6 hrs before blood collection and CBC analysis. […] The mice were bled at 72 hours after the first mRNA injection (6 hours after the last mRNA dose) to determine the effect of mRNA-encoded human G-CSF on the neutrophil count. The dosing regimen is shown in Table 65 as are the resulting neutrophil counts (thousands/uL). In Table 65, an asterisks (*) indicate statistical significance at p<0.05.

BALB/C mice = experiment: Example 59: G-CSF mRNA IM in mice, serum human G-CSF and mouse IFN-alpha ELISA (Table 93); type: in vivo
human PBMC [1] = experiment: Example 45: PBMC transfection, IFN-alpha ELISA (Table 72); type: cell-based
Description: (§1) The plates were then incubated at 37 C.
(§2) Each condition was done in duplicate.
(§3) Shown in Tables 71 and 72 are the average from 2 separate PBMC donors of the G-CSF and IFN-alpha production over time as measured by specific ELISA.

Sprague Dawley rats = experiment: Example 60: G-CSF/Factor IX mRNA IM in rats, serum G-CSF ELISA (Table 94); type: in vivo
Description: Protein production of modified mRNA was evaluated by delivering modified G-CSF mRNA or modified Factor IX mRNA to female Sprague Dawley rats (n=6). […] Blood was collected 8 hours after injection and the G-CSF protein level in serum was measured by ELISA.

BJ fibroblasts = conditions: for IFN-beta / IL-6: 250 ng transfected daily for 5 days
C57/BL6 mice = experiment: Example 32C: G-CSF lipoplex vs saline IM, SC in mice, serum G-CSF ELISA at 13 hours (Table 57); type: in vivo; conditions: IM or SC
Description: A formulation containing 100 μg of either modified human G-CSF mRNA lipoplexed with 30% by volume of RNAIMAX™ with a 5-methylcytosine (5mc) and a pseudouridine (ψ) modification (G-CSF-Gen1-Lipoplex), modified human G-CSF mRNA with a 5mc and ψ modification in saline (G-CSF-Gen1-Saline), modified human G-CSF mRNA with a N1-5-methylcytosine (N1-5mc) and a ψ modification lipoplexed with 30% by volume of RNAIMAX™ (G-CSF-Gen2-Lipoplex), modified human G-CSF mRNA with a N1-5mc and ψ modification in saline (G-CSF-Gen2-Saline), modified luciferase with a 5mc and ψ modification lipoplexed with 30% by volume of RNAIMAX™ (Luc-Lipoplex), or modified luciferase mRNA with a a 5mc and w modification in saline (Luc-Saline) was delivered intramuscularly (I.M.) or subcutaneously (S.C.) and a control group for each method of administration was giving a dose of 80 uL of the formulation buffer (F. Buffer) to C57/BL6 mice. 13 hours post injection serum and tissue from the site of injection were collected from each mouse and analyzed by G-CSF ELISA to compare human G-CSF protein levels. The results of the human G-CSF protein in mouse serum from the intramuscular administration and the subcutaneous administration results are shown in Table 57.

human PBMC [2] = experiment: Example 45: PBMC transfection, G-CSF ELISA (Table 71); type: cell-based
Description: as §1, §2, §3

B1: G-CSF Gen 2: G-CSF mRNA (SEQ ID NO: 4) fully modified with 5-methylcytosine and N1-methylpseudouridine (nucleic acid)
chain: GGGAAAUAAGAGAGAAAAGAAGAGUAAGAAGAAAUAUAAGAGCCACCAUGGCCGGUCCCGCGACCCAAAGCCCCAUGAAACUUAUGGCCCUGCAGUUGCUGCUUUGGCACUCGGCCCUCUGGACAGUCCAAGAAGCGACUCCUCUCGGACCUGCCUCAUCGUUGCCGCAGUCAUUCCUUUUGAAGUGUCUGGAGCAGGUGCGAAAGAUUCAGGGCGAUGGAGCCGCACUCCAAGAGAAGCUCUGCGCGACAUACAAACUUUGCCAUCCCGAGGAGCUCGUACUGCUCGGGCACAGCUUGGGGAUUCCCUGGGCUCCUCUCUCGUCCUGUCCGUCGCAGGCUUUGCAGUUGGCAGGGUGCCUUUCCCAGCUCCACUCCGGUUUGUUCUUGUAUCAGGGACUGCUGCAAGCCCUUGAGGGAAUCUCGCCAGAAUUGGGCCCGACGCUGGACACGUUGCAGCUCGACGUGGCGGAUUUCGCAACAACCAUCUGGCAGCAGAUGGAGGAACUGGGGAUGGCACCCGCGCUGCAGCCCACGCAGGGGGCAAUGCCGGCCUUUGCGUCCGCGUUUCAGCGCAGGGCGGGUGGAGUCCUCGUAGCGAGCCACCUUCAAUCAUUUUUGGAAGUCUCGUACCGGGUGCUGAGACAUCUUGCGCAGCCGUGAAGCGCUGCCUUCUGCGGGGCUUGCCUUCUGGCCAUGCCCUUCUUCUCUCCCUUGCACCUGUACCUCUUGGUCUUUGAAUAAAGCCUGAGUAGGAAG
modifications: 5-methylcytosine, N1-methylpseudouridine
increase in neutrophil count above control (mice; intramuscular): two fold increase
increase in neutrophil count above control (mice; subcutaneous): two fold increase
Protein: Cytokine Ratio (PC Ratio) (BALB/C mice; G-CSF / IFN-alpha): 748
human G-CSF expression in mouse serum (BALB/C mice; IM, 8 hours): resulted in human G-CSF expression in mouse serum
mouse IFN-alpha in the serum (cytokine response) (BALB/C mice; IM, 8 hours): no detectable IFN-alpha
IFN-alpha / cytokine production (human PBMC [1]): did not significantly increase cytokines
human G-CSF protein production, Gen 2 vs Gen 1 chemistry (Sprague Dawley rats; 400 ug IM, rats, 8 hours): human G-CSF protein production is improved
G-CSF protein in rat serum (Sprague Dawley rats; I.M., 400 ug in 100 ul, 5% sucrose, 8 hours after injection): 64.72 pg/mL
time to cytokine response (IFN-beta, IL-6) (BJ fibroblasts): 3 to 5 days
IFN-beta (BJ fibroblasts; 6 hours): 0 pg/mL
IL-6 (BJ fibroblasts; 6 hours): 3337 pg/mL
IFN-beta (BJ fibroblasts; Day 1): 0 pg/mL
IL-6 (BJ fibroblasts; Day 1): 3733 pg/mL
IFN-beta (BJ fibroblasts; Day 2): 150 pg/mL
IL-6 (BJ fibroblasts; Day 2): 974 pg/mL
IFN-beta (BJ fibroblasts; Day 3): 213 pg/mL
IL-6 (BJ fibroblasts; Day 3): 4972 pg/mL
IFN-beta (BJ fibroblasts; Day 4): 1400 pg/mL
IL-6 (BJ fibroblasts; Day 4): 4122 pg/mL
IFN-beta (BJ fibroblasts; Day 5): 350 pg/mL
IL-6 (BJ fibroblasts; Day 5): 2906 pg/mL
human G-CSF protein production relative to 5-methylcytosine/pseudouridine mRNA (C57/BL6 mice): increased human G-CSF protein production
G-CSF production (human PBMC [2]): highest level of G-CSF production
